Drawing on patent US20050153376A1 (AUCKLAND UNISERVICES, published 2005), this text covers Kd for 4 molecules.

The target of test [1] is MHC class II (HLA-DR1) on human LG-2 cells (human).
Test [2] shares this target. Description: Scatchard analysis, 125I-labelled toxin on LG-2 cells; low affinity site.
For test [3] the target is unchanged. Description: Scatchard analysis, 125I-labelled toxin on LG-2 cells; high affinity site.
Test [4] shares this target. Description: Scatchard analysis, 125I-labelled toxin on LG-2 cells.

Like-named read-outs stand apart in the source and are kept apart here.

B1: recombinant SPE-G superantigen (mature) (other)
chain: DENLKDLKRSLRFAYNITPCDYENVEIAFVTTNSIHINTKQKRSECILYVDSIVSLGITDQFIKGDKVDVFGLPYNFSPPYVDNIYGGIVKHSNQGNKSLQFVGILNQDGKETYLPSEAVRIKKKQFTLQEFDFKIRKFLMEKYNIYDSESRYTSGSLFLATKDSKHYEVDLFNKDDKLLSRDSFFKRYKDNKIFNSEEISHFDIYLKTH
For B1, the Kd is 15 to 65 nM in test [1], 1000 nM in test [2] and 16 nM in test [3].

B2: recombinant TSST (other)
chain: STNDNIKDLLDWYSSGSDTFTNSEVLDNSLGSMRIKNTDGSISLIIFPSPYYSPAFTKGEKVDLNTKRTKKSQHTSEGTYIHFQISGVTNTEKLPTPIELPLKVKVHGKDSPLKYGPKFDKKQLAISTLDFEIRHQLTQIHGLYRSSDKTGGYWKITMNDGSTYQSDLSKKFEYNTEKPPINIDEIKTIEAEIN
B2 yielded a Kd in test [4] of 130 nM.

B3: recombinant SEA (other)
chain: SEKSEEINEKDLRKKSELQGTALGNLKQIYYYNEKAKTENKESHDQFLQHTILFKGFFTDHSWYNDLLVDFDSKDIVDKYKGKKVDLYGAYYGYQCAGGTPNKTACMYGGVTLHDNNRLTEEKKVPINLWLDGKQNTVPLETVKTNKKNVTVQELDLQARRYLQEKYNLYNSDVFDGKVQRGLIVFHTSTEPSVNYDLFGAQGQYSNTLLRIYRDNKTINSENMHIDIYLYTS
Regarding B3, the Kd in test [2] came out at 1000 nM; in test [3], 36 nM.

B4: recombinant SEB (other)
chain: ESQPDPKPDELHKSSKFTGLMENMKVLYDDNHVSAINVKSIDQFLYFDLIYSIKDTKLGNYDNVRVEFKNKDLADKYKDKYVDVFGANYYYQCYFSKKTNDINSHQTDKRKTCMYGGVTEHNGNQLDKYRSITVRVFEDGKNLLSFDVQTNKKKVTAQELDYLTRHYLVKNKKLYEFNNSPYETGYIKFIENENSFWYDMMPAPGDKFDQSKYLMMYNDNKMVDSKDVKIEVYLTTKKK
Regarding B4, binding in test [4] was characterised by a dissociation constant (Kd) of 340 nM.

The term Kd denotes the constant that tells how readily two partners part at equilibrium. High values mean a looser complex, low ones a tighter complex.
